From US20200216536A1 (published 2020)
“And” between values parts separate entries of the source, which are not always exact repeats. Equal values may be shown once.

Experiments:
[1] = biological target: T1, canine FcRn (UniProtKB-E2ROL6 [FcRn] and UniProtKB-E2RN10 [canine beta-2-microglobulin]) (canine); test: SPR Biacore 8K, pH 5.5, Fc captured on BSA via SASA tag, FcRn 400 nM
T1 construct: Soluble analyte injected in SPR

[2] = biological target: T1, canine FcRn (UniProtKB-E2ROL6 [FcRn] …); test: SPR Biacore 8K, pH 5.5, Fc captured on BSA via SASA tag, FcRn 200 nM
[3] = biological target: T1, canine FcRn (UniProtKB-E2ROL6 [FcRn] …); test: SPR Biacore 8K, pH 5.5, Fc captured on BSA via SASA tag, FcRn 100-800 nM

Binder	Kd [1]	kon [1]	koff [1]	other results
canine IgG.B Fc (CH2-CH3) variant M428A (Fc fusion) APEMLGGPSVFIFPPKPKDTLLIARTPEVTCVVVDLDPEDPEVQISWFVDGKQMQTAKTQPREEQFNGTYRVVSVLPIGHQDWLKGKQFTCKVNNKALPSPIERTISKARGQAHQPSVYVLPPSREELSKNTVSLTCLIKDFFPPDIDVEWQSNGQQEPESKYRTTPPQLDEDGSYFLYSKLSVDKSRWQRGDTFICAVAHEALHNHYTQESLSHSPGK	723 nM and 1670 nM	234000 M⁻¹ s⁻¹ and 318000 M⁻¹ s⁻¹	–	–
canine IgG.B Fc (CH2-CH3) variant G309A (Fc fusion) APEMLGGPSVFIFPPKPKDTLLIARTPEVTCVVVDLDPEDPEVQISWFVDGKQMQTAKTQPREEQFNGTYRVVSVLPIAHQDWLKGKQFTCKVNNKALPSPIERTISKARGQAHQPSVYVLPPSREELSKNTVSLTCLIKDFFPPDIDVEWQSNGQQEPESKYRTTPPQLDEDGSYFLYSKLSVDKSRWQRGDTFICAVMHEALHNHYTQESLSHSPGK	245 nM and 294 nM	–	–	–
canine IgG.B Fc (CH2-CH3) variant N434S (Fc fusion) APEMLGGPSVFIFPPKPKDTLLIARTPEVTCVVVDLDPEDPEVQISWFVDGKQMQTAKTQPREEQFNGTYRVVSVLPIGHQDWLKGKQFTCKVNNKALPSPIERTISKARGQAHQPSVYVLPPSREELSKNTVSLTCLIKDFFPPDIDVEWQSNGQQEPESKYRTTPPQLDEDGSYFLYSKLSVDKSRWQRGDTFICAVMHEALHSHYTQESLSHSPGK	–	–	–	Kd [2]: 924 nM and 1050 nM; koff [2]: 0.207 s⁻¹ and 0.209 s⁻¹; kon [2]: 225000 M⁻¹ s⁻¹ and 199000 M⁻¹ s⁻¹
canine IgG.B Fc (CH2-CH3) variant P307A (Fc fusion) APEMLGGPSVFIFPPKPKDTLLIARTPEVTCVVVDLDPEDPEVQISWFVDGKQMQTAKTQPREEQFNGTYRVVSVLAIGHQDWLKGKQFTCKVNNKALPSPIERTISKARGQAHQPSVYVLPPSREELSKNTVSLTCLIKDFFPPDIDVEWQSNGQQEPESKYRTTPPQLDEDGSYFLYSKLSVDKSRWQRGDTFICAVMHEALHNHYTQESLSHSPGK	325 nM and 338 nM	–	–	–
canine IgG.B Fc (CH2-CH3) variant I308A (Fc fusion) APEMLGGPSVFIFPPKPKDTLLIARTPEVTCVVVDLDPEDPEVQISWFVDGKQMQTAKTQPREEQFNGTYRVVSVLPAGHQDWLKGKQFTCKVNNKALPSPIERTISKARGQAHQPSVYVLPPSREELSKNTVSLTCLIKDFFPPDIDVEWQSNGQQEPESKYRTTPPQLDEDGSYFLYSKLSVDKSRWQRGDTFICAVMHEALHNHYTQESLSHSPGK	472 nM and 563 nM	357000 M⁻¹ s⁻¹ and 345000 M⁻¹ s⁻¹	0.169 s⁻¹ and 0.194 s⁻¹	–
canine IgG.B Fc (CH2-CH3) variant N434Y (Fc fusion) APEMLGGPSVFIFPPKPKDTLLIARTPEVTCVVVDLDPEDPEVQISWFVDGKQMQTAKTQPREEQFNGTYRVVSVLPIGHQDWLKGKQFTCKVNNKALPSPIERTISKARGQAHQPSVYVLPPSREELSKNTVSLTCLIKDFFPPDIDVEWQSNGQQEPESKYRTTPPQLDEDGSYFLYSKLSVDKSRWQRGDTFICAVMHEALHYHYTQESLSHSPGK	–	–	–	Kd [3]: 29.1 nM; koff [3]: 0.0151 s⁻¹; kon [3]: 520000 M⁻¹ s⁻¹; Kd [2]: 15.9 nM; koff [2]: 0.00968 s⁻¹; kon [2]: 607000 M⁻¹ s⁻¹
canine IgG.B Fc (CH2-CH3) variant N434H (Fc fusion) APEMLGGPSVFIFPPKPKDTLLIARTPEVTCVVVDLDPEDPEVQISWFVDGKQMQTAKTQPREEQFNGTYRVVSVLPIGHQDWLKGKQFTCKVNNKALPSPIERTISKARGQAHQPSVYVLPPSREELSKNTVSLTCLIKDFFPPDIDVEWQSNGQQEPESKYRTTPPQLDEDGSYFLYSKLSVDKSRWQRGDTFICAVMHEALHHHYTQESLSHSPGK	–	–	–	Kd [3]: 247 nM; koff [3]: 0.102 s⁻¹; kon [3]: 411000 M⁻¹ s⁻¹
canine IgG.B Fc (CH2-CH3) variant T256A (Fc fusion) APEMLGGPSVFIFPPKPKDTLLIARAPEVTCVVVDLDPEDPEVQISWFVDGKQMQTAKTQPREEQFNGTYRVVSVLPIGHQDWLKGKQFTCKVNNKALPSPIERTISKARGQAHQPSVYVLPPSREELSKNTVSLTCLIKDFFPPDIDVEWQSNGQQEPESKYRTTPPQLDEDGSYFLYSKLSVDKSRWQRGDTFICAVMHEALHNHYTQESLSHSPGK	447 nM and 298 nM	–	–	–
canine IgG.B Fc (CH2-CH3) YTE variant (L252Y/A254T/T256E) (Fc fusion) APEMLGGPSVFIFPPKPKDTLYITREPEVTCVVVDLDPEDPEVQISWFVDGKQMQTAKTQPREEQFNGTYRVVSVLPIGHQDWLKGKQFTCKVNNKALPSPIERTISKARGQAHQPSVYVLPPSREELSKNTVSLTCLIKDFFPPDIDVEWQSNGQQEPESKYRTTPPQLDEDGSYFLYSKLSVDKSRWQRGDTFICAVMHEALHNHYTQESLSHSPGK	–	–	–	Kd [3]: 184 nM; koff [3]: 0.046 s⁻¹; kon [3]: 250000 M⁻¹ s⁻¹
canine IgG.B Fc (CH2-CH3) variant A254S (Fc fusion) APEMLGGPSVFIFPPKPKDTLLISRTPEVTCVVVDLDPEDPEVQISWFVDGKQMQTAKTQPREEQFNGTYRVVSVLPIGHQDWLKGKQFTCKVNNKALPSPIERTISKARGQAHQPSVYVLPPSREELSKNTVSLTCLIKDFFPPDIDVEWQSNGQQEPESKYRTTPPQLDEDGSYFLYSKLSVDKSRWQRGDTFICAVMHEALHNHYTQESLSHSPGK	340 nM and 317 nM	–	–	–
canine IgG.B Fc (CH2-CH3) variant N434A (Fc fusion) APEMLGGPSVFIFPPKPKDTLLIARTPEVTCVVVDLDPEDPEVQISWFVDGKQMQTAKTQPREEQFNGTYRVVSVLPIGHQDWLKGKQFTCKVNNKALPSPIERTISKARGQAHQPSVYVLPPSREELSKNTVSLTCLIKDFFPPDIDVEWQSNGQQEPESKYRTTPPQLDEDGSYFLYSKLSVDKSRWQRGDTFICAVMHEALHAHYTQESLSHSPGK	457 nM and 494 nM	518000 M⁻¹ s⁻¹ and 966000 M⁻¹ s⁻¹	0.237 s⁻¹ and 0.477 s⁻¹	Kd [2]: 573 nM and 629 nM; koff [2]: 0.156 s⁻¹ and 0.164 s⁻¹; kon [2]: 272000 M⁻¹ s⁻¹ and 261000 M⁻¹ s⁻¹
canine IgG.B Fc (CH2-CH3) variant K315A (Fc fusion) APEMLGGPSVFIFPPKPKDTLLIARTPEVTCVVVDLDPEDPEVQISWFVDGKQMQTAKTQPREEQFNGTYRVVSVLPIGHQDWLAGKQFTCKVNNKALPSPIERTISKARGQAHQPSVYVLPPSREELSKNTVSLTCLIKDFFPPDIDVEWQSNGQQEPESKYRTTPPQLDEDGSYFLYSKLSVDKSRWQRGDTFICAVMHEALHNHYTQESLSHSPGK	422 nM and 548 nM	–	–	–

Now from value to binder, other results behind:

Kd [1]	kon [1]	koff [1]	Binder	other results
393 nM and 876 nM	–	0.407 s⁻¹ and 0.213 s⁻¹	canine IgG.B Fc (CH2-CH3) variant Y436A (Fc fusion) APEMLGGPSVFIFPPKPKDTLLIARTPEVTCVVVDLDPEDPEVQISWFVDGKQMQTAKTQPREEQFNGTYRVVSVLPIGHQDWLKGKQFTCKVNNKALPSPIERTISKARGQAHQPSVYVLPPSREELSKNTVSLTCLIKDFFPPDIDVEWQSNGQQEPESKYRTTPPQLDEDGSYFLYSKLSVDKSRWQRGDTFICAVMHEALHNHATQESLSHSPGK	–
341 nM and 257 nM	–	–	canine IgG.B Fc (CH2-CH3) variant Q285A (Fc fusion) APEMLGGPSVFIFPPKPKDTLLIARTPEVTCVVVDLDPEDPEVQISWFVDGKQMATAKTQPREEQFNGTYRVVSVLPIGHQDWLKGKQFTCKVNNKALPSPIERTISKARGQAHQPSVYVLPPSREELSKNTVSLTCLIKDFFPPDIDVEWQSNGQQEPESKYRTTPPQLDEDGSYFLYSKLSVDKSRWQRGDTFICAVMHEALHNHYTQESLSHSPGK	–
464 nM and 569 nM	422000 M⁻¹ s⁻¹ and 533000 M⁻¹ s⁻¹	0.196 s⁻¹ and 0.304 s⁻¹	canine IgG.B Fc (CH2-CH3) variant T286A (Fc fusion) APEMLGGPSVFIFPPKPKDTLLIARTPEVTCVVVDLDPEDPEVQISWFVDGKQMQAAKTQPREEQFNGTYRVVSVLPIGHQDWLKGKQFTCKVNNKALPSPIERTISKARGQAHQPSVYVLPPSREELSKNTVSLTCLIKDFFPPDIDVEWQSNGQQEPESKYRTTPPQLDEDGSYFLYSKLSVDKSRWQRGDTFICAVMHEALHNHYTQESLSHSPGK	–
266 nM and 359 nM	–	0.229 s⁻¹ and 0.0997 s⁻¹	canine IgG.B Fc (CH2-CH3) variant H433A (Fc fusion) APEMLGGPSVFIFPPKPKDTLLIARTPEVTCVVVDLDPEDPEVQISWFVDGKQMQTAKTQPREEQFNGTYRVVSVLPIGHQDWLKGKQFTCKVNNKALPSPIERTISKARGQAHQPSVYVLPPSREELSKNTVSLTCLIKDFFPPDIDVEWQSNGQQEPESKYRTTPPQLDEDGSYFLYSKLSVDKSRWQRGDTFICAVMHEALANHYTQESLSHSPGK	–
368 nM and 370 nM	2.43e+06 M⁻¹ s⁻¹ and 1.34e+06 M⁻¹ s⁻¹	0.894 s⁻¹ and 0.496 s⁻¹	canine IgG.B Fc (CH2-CH3) variant Q311A (Fc fusion) APEMLGGPSVFIFPPKPKDTLLIARTPEVTCVVVDLDPEDPEVQISWFVDGKQMQTAKTQPREEQFNGTYRVVSVLPIGHADWLKGKQFTCKVNNKALPSPIERTISKARGQAHQPSVYVLPPSREELSKNTVSLTCLIKDFFPPDIDVEWQSNGQQEPESKYRTTPPQLDEDGSYFLYSKLSVDKSRWQRGDTFICAVMHEALHNHYTQESLSHSPGK	–
292 nM and 240 nM	–	–	canine IgG.B Fc (CH2-CH3) variant L252A (Fc fusion) APEMLGGPSVFIFPPKPKDTLAIARTPEVTCVVVDLDPEDPEVQISWFVDGKQMQTAKTQPREEQFNGTYRVVSVLPIGHQDWLKGKQFTCKVNNKALPSPIERTISKARGQAHQPSVYVLPPSREELSKNTVSLTCLIKDFFPPDIDVEWQSNGQQEPESKYRTTPPQLDEDGSYFLYSKLSVDKSRWQRGDTFICAVMHEALHNHYTQESLSHSPGK	–
673 nM and 592 nM	272000 M⁻¹ s⁻¹ and 306000 M⁻¹ s⁻¹	0.183 s⁻¹ and 0.181 s⁻¹	canine IgG.B Fc (CH2-CH3) variant D378A (Fc fusion) APEMLGGPSVFIFPPKPKDTLLIARTPEVTCVVVDLDPEDPEVQISWFVDGKQMQTAKTQPREEQFNGTYRVVSVLPIGHQDWLKGKQFTCKVNNKALPSPIERTISKARGQAHQPSVYVLPPSREELSKNTVSLTCLIKDFFPPDIAVEWQSNGQQEPESKYRTTPPQLDEDGSYFLYSKLSVDKSRWQRGDTFICAVMHEALHNHYTQESLSHSPGK	–
335 nM and 328 nM	–	–	canine IgG.B Fc (CH2-CH3) variant T250A (Fc fusion) APEMLGGPSVFIFPPKPKDALLIARTPEVTCVVVDLDPEDPEVQISWFVDGKQMQTAKTQPREEQFNGTYRVVSVLPIGHQDWLKGKQFTCKVNNKALPSPIERTISKARGQAHQPSVYVLPPSREELSKNTVSLTCLIKDFFPPDIDVEWQSNGQQEPESKYRTTPPQLDEDGSYFLYSKLSVDKSRWQRGDTFICAVMHEALHNHYTQESLSHSPGK	–
